Measurements from patent US20260139033A1 (PRANA THERAPIES, published 2026).

B1: Candidate-25 (TRAP-2) (bispecific antibody, human IgG4 S228P, kappa)
heavy chain: EVQLVESGGGLEQPGGSLRLSCAGSGFTFRDYAMTWVRQAPGKGLEWVSSISGSGGNTYYADSVKGRFTISRDNSKNTLYLQMNSLRAEDTAVYYCAKDRLSITIRPRYYGLDVWGQGTTVTVSSASTKGPSVFPLAPCSRSTSESTAALGCLVKDYFPEPVTVSWNSGALTSGVHTFPAVLQSSGLYSLSSVVTVPSSSLGTKTYTCNVDHKPSNTKVDKRVESKYGPPCPPCPAPEFLGGPSVFLFPPKPKDTLYITREPEVTCVVVDVSQEDPEVQFNWYVDGVEVHNAKTKPREEQFNSTYRVVSVLTVLHQDWLNGKEYKCKVSNKGLPSSIEKTISKAKGQPREPQVYTLPPSQEEMTKNQVSLTCLVKGFYPSDIAVEWESNGQPENNYKTTPPVLDSDGSFFLYSRLTVDKSRWQEGNVFSCSVMHEALHNHYTQKSLSLSLG
light chain with N-terminal TSLP TRAP 2 (TSLP-TRAP, first linker, dupilumab-YTE light chain): ESGYAQNGDLEDAELDDYSFSCYSQLEVNGSQHSLTCAFEDPDVNITNLEFEICGALVEVKCLNFRKLQEIYFIETKKFLLIGKSNICVKVGEKSLTCKKIDLTTIVKPEAPFDLSVVYREGANDFVVTFNTSHLQKKYVKVLMHDVAYRQEKDENKWTHVNLSSTKLTLLQRKLQPAAMYEIKVRSIPDHYFKGFWSEWSPSYYFRTPEINNSSGEMDGGSGGSGGSGGSGGSGGSGGSGGSGGSGGSGGSGGSGGSGGSGGSGGSGGSGGSGGSGGSGAAEGVQIQIIYFNLETVQVTWNASKYSRTNLTFHYRFNGDEAYDQCTNYLLQEGHTSGCLLDAEQRDDILYFSIRNGTHPVFTASRWMVYYLKPSSPKHVRFSWHQDAVTVTCSDLSYGDLLYEVQYRSPFDTEWQSKQENTCNVTIEGLDAEKCYSFWVRVKAMEDVYGPDTYPSDWSEVTCWQRGEIRDACAETPTPPKPKLSKGGGGSGGGGSGGGGSGGGGSDIVMTQSPLSLPVTPGEPASISCRSSQSLLYSIGYNYLDWYLQKSGQSPQLLIYLGSNRASGVPDRFSGSGSGTDFTLKISRVEAEDVGFYYCMQALQTPYTFGQGTKLEIKRTVAAPSVFIFPPSDEQLKSGTASVVCLLNNFYPREAKVQWKVDNALQSGNSQESVTEQDSKDSTYSLSSTLTLSKADYEKHKVYACEVTHQGLSSPVTKSFNRGEC
notes: also called Light chain N-terminal TRAP: TSLP TRAP 2_Linker-GS4_Dupilumab-YTE [2 x TRAP 2]
B2: Candidate-23: Dupilumab-YTE_Linker-GS4_TSLP TRAP 1 (bispecific antibody, human IgG4 S228P, kappa)
heavy: EVQLVESGGGLEQPGGSLRLSCAGSGFTFRDYAMTWVRQAPGKGLEWVSSISGSGGNTYYADSVKGRFTISRDNSKNTLYLQMNSLRAEDTAVYYCAKDRLSITIRPRYYGLDVWGQGTTVTVSSASTKGPSVFPLAPCSRSTSESTAALGCLVKDYFPEPVTVSWNSGALTSGVHTFPAVLQSSGLYSLSSVVTVPSSSLGTKTYTCNVDHKPSNTKVDKRVESKYGPPCPPCPAPEFLGGPSVFLFPPKPKDTLYITREPEVTCVVVDVSQEDPEVQFNWYVDGVEVHNAKTKPREEQFNSTYRVVSVLTVLHQDWLNGKEYKCKVSNKGLPSSIEKTISKAKGQPREPQVYTLPPSQEEMTKNQVSLTCLVKGFYPSDIAVEWESNGQPENNYKTTPPVLDSDGSFFLYSRLTVDKSRWQEGNVFSCSVMHEALHNHYTQKSLSLSLGGGGGSGGGGSGGGGSGGGGSGAAEGVQIQIIYFNLETVQVTWNASKYSRTNLTFHYRFNGDEAYDQCTNYLLQEGHTSGCLLDAEQRDDILYFSIRNGTHPVFTASRWMVYYLKPSSPKHVRFSWHQDAVTVTCSDLSYGDLLYEVQYRSPFDTEWQSKQENTCNVTIEGLDAEKCYSFWVRVKAMEDVYGPDTYPSDWSEVTCWQRGEIRDACAETPTPPKPKLSKGGSGGSGGSGGSGGSGGSGGSGGSGGSGGSGGSGGSGGSGGSGGSGGSGGSGGSGGSGGSESGYAQNGDLEDAELDDYSFSCYSQLEVNGSQHSLTCAFEDPDVNITNLEFEICGALVEVKCLNFRKLQEIYFIETKKFLLIGKSNICVKVGEKSLTCKKIDLTTIVKPEAPFDLSVVYREGANDFVVTFNTSHLQKKYVKVLMHDVAYRQEKDENKWTHVNLSSTKLTLLQRKLQPAAMYEIKVRSIPDHYFKGFWSEWSPSYYFRTPEINNSSGEMD
light: DIVMTQSPLSLPVTPGEPASISCRSSQSLLYSIGYNYLDWYLQKSGQSPQLLIYLGSNRASGVPDRFSGSGSGTDFTLKISRVEAEDVGFYYCMQALQTPYTFGQGTKLEIKRTVAAPSVFIFPPSDEQLKSGTASVVCLLNNFYPREAKVQWKVDNALQSGNSQESVTEQDSKDSTYSLSSTLTLSKADYEKHKVYACEVTHQGLSSPVTKSFNRGEC
notes: The chains here are built from the component entries; TRAP sits at the C-terminus of the heavy chain
B3: Candidate-24: Dupilumab-YTE_Linker-GS4_TSLP TRAP 2 (bispecific antibody, human IgG4 S228P, kappa)
heavy: EVQLVESGGGLEQPGGSLRLSCAGSGFTFRDYAMTWVRQAPGKGLEWVSSISGSGGNTYYADSVKGRFTISRDNSKNTLYLQMNSLRAEDTAVYYCAKDRLSITIRPRYYGLDVWGQGTTVTVSSASTKGPSVFPLAPCSRSTSESTAALGCLVKDYFPEPVTVSWNSGALTSGVHTFPAVLQSSGLYSLSSVVTVPSSSLGTKTYTCNVDHKPSNTKVDKRVESKYGPPCPPCPAPEFLGGPSVFLFPPKPKDTLYITREPEVTCVVVDVSQEDPEVQFNWYVDGVEVHNAKTKPREEQFNSTYRVVSVLTVLHQDWLNGKEYKCKVSNKGLPSSIEKTISKAKGQPREPQVYTLPPSQEEMTKNQVSLTCLVKGFYPSDIAVEWESNGQPENNYKTTPPVLDSDGSFFLYSRLTVDKSRWQEGNVFSCSVMHEALHNHYTQKSLSLSLGGGGGSGGGGSGGGGSGGGGSESGYAQNGDLEDAELDDYSFSCYSQLEVNGSQHSLTCAFEDPDVNITNLEFEICGALVEVKCLNFRKLQEIYFIETKKFLLIGKSNICVKVGEKSLTCKKIDLTTIVKPEAPFDLSVVYREGANDFVVTFNTSHLQKKYVKVLMHDVAYRQEKDENKWTHVNLSSTKLTLLQRKLQPAAMYEIKVRSIPDHYFKGFWSEWSPSYYFRTPEINNSSGEMDGGSGGSGGSGGSGGSGGSGGSGGSGGSGGSGGSGGSGGSGGSGGSGGSGGSGGSGGSGGSGAAEGVQIQIIYFNLETVQVTWNASKYSRTNLTFHYRFNGDEAYDQCTNYLLQEGHTSGCLLDAEQRDDILYFSIRNGTHPVFTASRWMVYYLKPSSPKHVRFSWHQDAVTVTCSDLSYGDLLYEVQYRSPFDTEWQSKQENTCNVTIEGLDAEKCYSFWVRVKAMEDVYGPDTYPSDWSEVTCWQRGEIRDACAETPTPPKPKLSK
light: B2 light
notes: as for B2
B4: Candidate-5 (TRAP-2) (other)
heavy chain with C-terminal TSLP TRAP 2 (palivizumab-YTE heavy chain, first linker, TSLP-TRAP): QVTLRESGPALVKPTQTLTLTCTFSGFSLSTSGMSVGWIRQPPGKALEWLADIWWDDKKDYNPSLKSRLTISKDTSANQVVLKVTNMDPADTATYYCARSMITNWYFDVWGAGTTVTVSSASTKGPSVFPLAPCSRSTSESTAALGCLVKDYFPEPVTVSWNSGALTSGVHTFPAVLQSSGLYSLSSVVTVPSSSLGTKTYTCNVDHKPSNTKVDKRVESKYGPPCPPCPAPEFLGGPSVFLFPPKPKDTLYITREPEVTCVVVDVSQEDPEVQFNWYVDGVEVHNAKTKPREEQFNSTYRVVSVLTVLHQDWLNGKEYKCKVSNKGLPSSIEKTISKAKGQPREPQVYTLPPSQEEMTKNQVSLTCLVKGFYPSDIAVEWESNGQPENNYKTTPPVLDSDGSFFLYSRLTVDKSRWQEGNVFSCSVMHEALHNHYTQKSLSLSLGGGGGSGGGGSGGGGSGGGGSESGYAQNGDLEDAELDDYSFSCYSQLEVNGSQHSLTCAFEDPDVNITNLEFEICGALVEVKCLNFRKLQEIYFIETKKFLLIGKSNICVKVGEKSLTCKKIDLTTIVKPEAPFDLSVVYREGANDFVVTFNTSHLQKKYVKVLMHDVAYRQEKDENKWTHVNLSSTKLTLLQRKLQPAAMYEIKVRSIPDHYFKGFWSEWSPSYYFRTPEINNSSGEMDGGSGGSGGSGGSGGSGGSGGSGGSGGSGGSGGSGGSGGSGGSGGSGGSGGSGGSGGSGGSGAAEGVQIQIIYFNLETVQVTWNASKYSRTNLTFHYRFNGDEAYDQCTNYLLQEGHTSGCLLDAEQRDDILYFSIRNGTHPVFTASRWMVYYLKPSSPKHVRFSWHQDAVTVTCSDLSYGDLLYEVQYRSPFDTEWQSKQENTCNVTIEGLDAEKCYSFWVRVKAMEDVYGPDTYPSDWSEVTCWQRGEIRDACAETPTPPKPKLSK
light chain: DIQMTQSPSTLSASVGDRVTITCKCQLSVGYMHWYQQKPGKAPKLLIYDTSKLASGVPSRFSGSGSGTAFTLTISSLQPDDFATYYCFQGSGYPFTFGGGTKLEIKRTVAAPSVFIFPPSDEQLKSGTASVVCLLNNFYPREAKVQWKVDNALQSGNSQESVTEQDSKDSTYSLSSTLTLSKADYEKHKVYACEVTHQGLSSPVTKSFNRGEC
notes: Monospecific TSLP-TRAP complex on palivizumab (human IgG4 S228P, YTE)
B5: dupilumab (antibody, V domains shown)
VH: EVQLVESGGGLEQPGGSLRLSCAGSGFTFRDYAMTWVRQAPGKGLEWVSSISGSGGNTYYADSVKGRFTISRDNSKNTLYLQMNSLRAEDTAVYYCAKDRLSITIRPRYYGLDVWGQGTTVTVS
VL: DIVMTQSPLSLPVTPGEPASISCRSSQSLLYSIGYNYLDWYLQKSGQSPQLLIYLGSNRASGVPDRFSGSGSGTDFTLKISRVEAEDVGFYYCMQALQTPYTFGQGTKLEIK

Experiments:
[1] = target: T1, recombinant human TSLP (human, UniProt Q969D9 29-159); assay: SPR (Biacore 3000, CM5 chip, 25 C): complex captured via protein A, TSLP as analyte, 1:1 fit; column 'TSLP binding(pM)'
T1 construct: also called thymic stromal lymphopoietin
Method: (§1) SPR studies were carried out on a Biacore 3000 instrument with a CM5 chip at 25° C. The running buffer comprised 25 mM Hepes, pH 7.5, 150 mM NaCl, 0.5 mg/ml BSA, 0.005% P20. Antibodies were captured via protein A using approximately a 1/50 dilution of each antibody in the running buffer and a 2-minute contact time at a 10 μl/min flow rate. Protein A was immobilized on a CM5 chip via standard amine coupling chemistry in 10 mM acetate pH 4.5. Approximately 800 RU of each antibody was captured. The surfaces were regenerated via a 10 mM glycine pH 1.5 between cycles. Between assays the chip was regenerated with a 2-minute pulse of 100 mM Phosphoric acid. Prior to setting up multicycle kinetic analysis analyte concentration was determined spectrophotometrically using an extinction coefficient of 72,880 M⁻¹ cm⁻¹ for IL4R and 18450 M⁻¹ cm⁻¹ for the TSLP proteins respectively. Analyte samples were prepared by diluting stocks into running buffer to a final concentration of 500 nM for the IL-4R and 25 nM for TSLP followed by serially diluting with a 2-fold series with an association time of 2.5 minutes at a 50 μl/min flow rate. Dissociation data was collected for a period of 1600 seconds. Raw data was analyzed using the Scrubber2 (Biologic Software, AU) program using a double referencing procedure where compound signal is corrected to a blank surface and a buffer injection over the captured antibody surface. Kinetic data was analyzed by fitting to a simple 1:1 binding model. […] The candidates are further described in Table 3.

[2] = target: IL-4R on human donor PBMC (B-cells) (human, UniProt P24394 26-825); assay: cell-based or functional assay
[3] = target: T1, recombinant human TSLP; assay: cell-based or functional assay
[4] = target: T1, recombinant human TSLP; assay: SPR; column 'SPR (Biophysical binding): TSLP (pM)'
Method: as §1

Row | Binder | Kd [1] [pM] | IC50, upregulation of CD23 in response to IL-4 in PBMCs [2] [pM] | IC50, TARC secretion in response to TSLP in PBMCs [3] [pM] | Kd [4] [pM] | IC50, IL-4 biological assay (CD23 upregulation in PBMCs) [2] [nM]
1 | B1 | 16.6 | – | – | – | –
2 | B2 | 25.9 | 17100 | 1700 | 25.9 | –
3 | B3 | 16.8 | 12500 | 4300 | 16.8 | –
4 | B4 | 1.3 | – | – | – | –
5 | B5 | – | – | – | – | 4.7
